The values that follow come from publication PMC10393190 (Genes & Development, 2022).

The target of series [1] is T1, Mer2 (Saccharomyces cerevisiae, UniProt P21651 1-314).
T1 sequence: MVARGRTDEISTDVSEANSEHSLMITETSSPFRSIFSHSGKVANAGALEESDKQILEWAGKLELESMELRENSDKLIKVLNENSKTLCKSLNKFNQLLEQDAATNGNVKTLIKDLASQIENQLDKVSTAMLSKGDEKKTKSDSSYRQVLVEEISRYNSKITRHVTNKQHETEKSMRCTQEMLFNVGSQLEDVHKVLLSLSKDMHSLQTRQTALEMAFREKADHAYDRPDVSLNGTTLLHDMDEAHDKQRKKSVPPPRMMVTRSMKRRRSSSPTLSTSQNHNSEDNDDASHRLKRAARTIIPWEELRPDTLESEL
Kind of series: EMSA.

Series [2] deals with T2, IHO1 coiled-coil domain (Mus musculus, UniProt Q6PDM4 109-267).
T2 sequence: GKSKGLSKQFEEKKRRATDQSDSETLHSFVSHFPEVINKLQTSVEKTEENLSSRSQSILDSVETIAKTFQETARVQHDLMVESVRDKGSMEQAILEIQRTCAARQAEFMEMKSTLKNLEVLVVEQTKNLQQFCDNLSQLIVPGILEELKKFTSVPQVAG
Kind of series: competition.

The target of series [3] is T3, Rec15 coiled-coil domain (Schizosaccharomyces pombe, UniProt Q09094 1-160).
T3 sequence: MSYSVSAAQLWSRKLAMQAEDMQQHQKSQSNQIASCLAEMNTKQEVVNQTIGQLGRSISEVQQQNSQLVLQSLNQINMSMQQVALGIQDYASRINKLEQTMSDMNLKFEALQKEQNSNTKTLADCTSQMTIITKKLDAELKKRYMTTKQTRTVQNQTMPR
Kind of series: competition.

The target in series [4] is T4, Rec114;Mei4 (Saccharomyces cerevisiae;Saccharomyces …, UniProt P32841;P29467 1-428;1-408, |).
T4 sequence 1: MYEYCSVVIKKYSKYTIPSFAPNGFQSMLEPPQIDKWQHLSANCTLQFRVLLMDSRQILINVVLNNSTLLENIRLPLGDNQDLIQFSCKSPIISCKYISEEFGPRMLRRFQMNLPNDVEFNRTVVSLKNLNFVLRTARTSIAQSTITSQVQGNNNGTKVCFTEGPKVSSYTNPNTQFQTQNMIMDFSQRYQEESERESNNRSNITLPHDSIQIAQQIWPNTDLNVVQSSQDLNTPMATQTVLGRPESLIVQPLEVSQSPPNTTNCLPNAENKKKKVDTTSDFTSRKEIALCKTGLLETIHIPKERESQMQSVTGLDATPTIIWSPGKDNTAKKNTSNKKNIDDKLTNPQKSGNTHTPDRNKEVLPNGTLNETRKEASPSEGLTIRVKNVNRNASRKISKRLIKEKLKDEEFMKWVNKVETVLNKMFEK
T4 sequence 2: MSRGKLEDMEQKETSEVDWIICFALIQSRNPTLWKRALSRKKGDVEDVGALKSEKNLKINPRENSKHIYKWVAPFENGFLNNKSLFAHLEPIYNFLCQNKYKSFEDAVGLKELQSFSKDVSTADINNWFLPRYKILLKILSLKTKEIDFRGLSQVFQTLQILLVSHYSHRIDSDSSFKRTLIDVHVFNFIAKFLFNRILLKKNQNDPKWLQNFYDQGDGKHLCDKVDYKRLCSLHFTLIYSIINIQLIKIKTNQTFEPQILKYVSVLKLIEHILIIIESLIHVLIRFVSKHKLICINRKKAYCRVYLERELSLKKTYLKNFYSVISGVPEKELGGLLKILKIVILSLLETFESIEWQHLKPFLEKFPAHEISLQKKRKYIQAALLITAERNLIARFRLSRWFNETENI
Kind of series: competition.

The target of series [5] is T5, REC114;MEI4 (Mus musculus;Mus musculus, UniProt Q9CWH4;Q8BRM6 1-259;1-389, |).
T5 sequence 1: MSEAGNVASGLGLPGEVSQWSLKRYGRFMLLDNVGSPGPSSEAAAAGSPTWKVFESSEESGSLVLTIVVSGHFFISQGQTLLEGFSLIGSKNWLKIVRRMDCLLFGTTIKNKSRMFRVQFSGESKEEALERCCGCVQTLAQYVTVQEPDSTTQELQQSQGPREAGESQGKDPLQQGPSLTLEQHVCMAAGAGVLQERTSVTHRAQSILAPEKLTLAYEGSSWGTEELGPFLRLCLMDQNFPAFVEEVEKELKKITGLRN
T5 sequence 2: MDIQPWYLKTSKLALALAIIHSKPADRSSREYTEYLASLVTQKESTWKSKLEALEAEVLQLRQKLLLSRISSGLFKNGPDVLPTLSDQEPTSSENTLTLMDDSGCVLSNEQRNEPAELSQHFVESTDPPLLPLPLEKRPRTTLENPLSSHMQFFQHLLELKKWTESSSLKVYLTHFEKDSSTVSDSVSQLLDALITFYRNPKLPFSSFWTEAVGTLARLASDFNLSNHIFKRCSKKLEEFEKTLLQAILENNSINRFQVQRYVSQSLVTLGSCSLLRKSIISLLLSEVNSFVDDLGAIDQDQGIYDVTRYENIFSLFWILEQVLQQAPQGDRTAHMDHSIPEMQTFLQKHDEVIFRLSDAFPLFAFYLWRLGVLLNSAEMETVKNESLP
Kind of series: competition.

In series [6] the target is T1, Mer2. The experiment in a line: EMSA. This is another data set of the same source.
Series [7] deals with T1, Mer2. The experiment in a line: EMSA. The source holds these as a separate data set.

Read-outs that look alike come from different tables or passages of the source.

B1: HJ40 (cb095/cb096/cb097/cb098) (structured_DNA)
DNA 1: CTAGTATAGAGCCGGCGCGCCATGTCTAGATAGCGTTAGGTCTGCCGAATAGTACTACTCGGATCCCGAGCGAACCACGC
DNA 2: GCGTGGTTCGCTCGGGATCCGAGTAGTACTATTCGGCAGAGGATTCGAATAGGCCTAATCGAATTCCGCCATCGATGCAC
DNA 3: GTGCATCGATGGCGGAATTCGATTAGGCCTATTCGAATCCAGACGCGAGTAGATCTTCACGGTACCCGCGGTTACCCGTG
DNA 4: CACGGGTAACCGCGGGTACCGTGAAGATCTACTCGCGTCTCCTAACGCTATCTAGACATGGCGCGCCGGCTCTATACTAG
Regarding B1, the “apparent K (half saturation)” value in series [1] turned out to be 9.2 ± 1 nM. For the same molecule, the binding result in series [2] and in series [3] was “binds” each time. Moreover, the binding signal was ~10 fold better competitor than dsDNA in series [4] and > 20 fold higher affinity than dsDNA in series [5].

B2: 3' flaps (cb095/cb098/cb122) (structured_DNA)
DNA 1: B1 DNA 1
DNA 2: B1 DNA 4
DNA 3: AGACGCGAGTAGATCTTCACGGTACCCGCGGTTACCCGTG
Regarding B2, in series [6], the “apparent K (half saturation)” value was 34.4 ± 25.2 nM.

B3: Fork (cb095/cb098/cb122/cb120) (structured_DNA)
DNA 1: B1 DNA 1
DNA 2: B1 DNA 4
DNA 3: B2 DNA 3
DNA 4: GCGTGGTTCGCTCGGGATCCGAGTAGTACTATTCGGCAGA
Take B3: the “apparent K (half saturation)” value in series [7] turned out to be 24.4 ± 5.5 nM.
